This is an account of results in patent US20250059275A1 (SHANGHAI NIGENE BIOLOGICAL SCIENCE AND TECHNOLOGY, published 2025).

One may read the EC50 (read off the curve) as the concentration giving half of the maximal effect. In general, EC50 refers to the concentration at which the effect is half-maximal. A word on the IC50: it is the concentration needed to halve the response being measured.

The target in assay [1] is T1, human TIGIT-HIS (Biointron, BI120) (human, UniProt Q495A1 22-141, limits assumed).
T1 construct: also called recombinant huTIGIT protein; recombinant human TIGIT protein; not shown: His tag
T1 sequence (looked up): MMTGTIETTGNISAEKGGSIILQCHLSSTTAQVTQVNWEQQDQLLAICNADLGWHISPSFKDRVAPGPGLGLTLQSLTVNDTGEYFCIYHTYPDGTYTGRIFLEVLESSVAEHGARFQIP
Nature of the assay: Octet BLI tandem epitope competition, TIGIT-HIS loaded on the sensor, first antibody step.

Assay [2] has as its target T2, cynomolgus monkey TIGIT expressed on CHO-K1 cells (CHO-mkTIGIT) (cynomolgus monkey, UniProt A0A7N9I9V4 89-312).
T2 construct: whole, on cells
The experiment in a line: flow cytometry on CHO-mkTIGIT cells, anti-human IgG secondary antibody. How it is done:
(§1) CHO-huTIGIT cells or CHO-mkTIGIT cells were implanted in 96 well plates. The antibodies of Example 2 were diluted to different concentrations respectively and added to 96 well plates covered with cells (100 μL/well), incubated at 4° C. (on ice) for 1 hour.
(§2) Washed the cells by adding 200 μL/well washing buffer, and centrifuged at 1600 rpm (˜260×g), 4° C. for 3 minutes, and discarded the supernatant, repeated twice. Add 30 μL washing buffer containing anti-human IgG secondary antibody (Jackson ImmunoResearch, #109-585-190, Alexa Fluor® 594 AffiniPure Goat Anti-Human IgG, Fcγ fragment specific) to each well, cultured cells at 4° C. (on ice) for 1 hour. Washing twice, transferred the cells to a flat bottom 96 well plate, and analyze the cells with CytoFLEX S. The antibody concentration was plotted with the logarithm of 10 as the abscissa and the median fluorescence value of two channels as the ordinate. The EC₅₀ (CHO-huTIGIT and CHO-mkTIGIT) and the peak value of the curve were compared.
On the technique in general: A flow cytometer gives signals particle by particle.

Assay [3] deals with T3, human TIGIT expressed on CHO-K1 cells (CHO-huTIGIT) (human, UniProt Q495A1 22-244).
T3 construct: whole, on cells; also called CHO-huTIGIT-eGFP; human TIGIT-expressing CHO cells
T3 sequence (looked up): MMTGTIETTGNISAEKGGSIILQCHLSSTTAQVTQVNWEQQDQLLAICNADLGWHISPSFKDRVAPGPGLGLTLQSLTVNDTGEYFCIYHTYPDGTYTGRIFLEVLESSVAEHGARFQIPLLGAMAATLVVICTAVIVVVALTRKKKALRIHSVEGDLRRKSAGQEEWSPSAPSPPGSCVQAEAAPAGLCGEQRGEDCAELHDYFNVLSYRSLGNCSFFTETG
The experiment in a line: flow cytometry on CHO-huTIGIT cells, anti-human IgG Fc Alexa Fluor 594. How it is done:
as §1, §2

For assay [4], the target named is T3, human TIGIT expressed on CHO-K1 cells …. Nature of the assay: flow cytometry blocking assay on CHO-huTIGIT-eGFP cells; blocked ligand: biotinylated human CD155-Fc. How it is done: (§3) CHO-huTIGIT-eGFP cells were implanted in V-bottom 96 well plates. The antibodies of Example 2 and reference antibodies were diluted to different concentrations respectively and added (100 μL/well) to the 96 well plate covered with cells (100%)), incubated at 4° C. for 1 hour.
(§4) Washed the cells by adding 200 μL/well washing buffer, and centrifuged at 1600 rpm (˜260×g), 4° C. for 3 minutes, and discarded the supernatant, repeated twice. […] (on ice) for 1 hour. Add 30 μL washing buffer contains streptavidin-594 (f.c.=10 μg/ml) into the well, then the cells were incubated at 4° C. for 30 minutes. Wash once and transfer the cells to a flat bottom 96 well plate, and analyze the cells with CytoFLEX S. Take the logarithm of antibody concentration (μg/mL) with the base of 10 as the abscissa and the intermediate fluorescence value corresponding to each antibody concentration as the ordinate.

Assay [5] concerns the target T2, cynomolgus monkey TIGIT expressed on …. The experiment in a line: flow cytometry on CHO-mkTIGIT cells, anti-human IgG Fc Alexa Fluor 594. How it is done:
as §1, §2

Assay [6] deals with T3, human TIGIT expressed on CHO-K1 cells …. The experiment in a line: flow cytometry competition on CHO-huTIGIT-eGFP cells; competitor biotinylated human CD155-Fc. How it is done: as §3, §4

T2 sequence (A0A7N9I9V4 entry or part of it): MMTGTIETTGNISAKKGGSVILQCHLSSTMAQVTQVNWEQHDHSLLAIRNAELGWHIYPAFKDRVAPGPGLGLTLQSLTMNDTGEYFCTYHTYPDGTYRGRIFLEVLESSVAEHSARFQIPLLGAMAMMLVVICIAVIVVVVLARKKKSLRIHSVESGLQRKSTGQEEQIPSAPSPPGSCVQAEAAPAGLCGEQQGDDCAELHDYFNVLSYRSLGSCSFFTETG

B1: JHH4D035a (antibody, V domains shown)
VH: EVQLVESGGGLVQPGRSLRLSCAASGFTFDDFAMHWVRQAPGKGLEWVSGISWNGIGIGYADSVKGRFTISRDNAKNSLYLQMNSLRAEDTALYFCAKDKGLRRYYGMDVWGQGITVIVSS
VL: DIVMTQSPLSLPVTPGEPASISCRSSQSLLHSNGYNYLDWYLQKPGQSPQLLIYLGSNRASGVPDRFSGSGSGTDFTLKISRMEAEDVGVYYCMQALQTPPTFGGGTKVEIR
notes: Fully human antibody from TC-mAb mice
For the molecule B1, the binding result in assay [1] is “binds”.

B2: JHH4E061a (antibody, V domains shown)
VH: EVQLVESGGGLIQPGRSLTLSCVASGFTFDDYAMHWVRQAPGKGLEWVSGISWNGIGIGYADSVKGRFTISRDNAKNSLILQMNSLRIEDTALYYCAKDKGLRRYYGMDVWGQGTTVTVSS
VL: EIVMTQSPLSLPVTPGEPASISCRSSRSLLHSNGYNYLDWYLQKPGQSPQLLIYLGSNRASGVPDRFSGSGSGTDFTLKINRVEAEDVGVYYCMQALQTPPTFGGGTKVEIK
notes: as for B1
As to B2, the binding result in assay [1] was “binds”.

B3: JHH4B056a (antibody, V domains shown)
VH: EVQLVESGGGLVQPGRSLRLSCAASGFTFDDYAMHWVRQAPGKGLEWVSGISWNGIGIGYADSVKGRFTISRDNAKNSLYLQMNSLRAEDTALYYCAKDGGDYHYYGMDVWGQGTTVTVSS
VL: not shown
In the case of B3, the “EC50 (read off the curve)” value in assay [2] was about 0.009 µg/mL. Further, the EC50 was determined as 0.00459 µg/mL in assay [3] and 0.00958 µg/mL in assay [5]. In assay [4], the “IC50 (read off the curve)” value was about 1 µg/mL. For the same molecule, the IC50 in assay [6] was 1 µg/mL.

B4: JHH4A063 (antibody, V domains shown)
VH: EVQLVESGGGLVQPGRSLRLSCTASGFNFDDYGMHWVRQAPGKGLEWVSGISWNSISIGSADSVKGRFTISRDNAKNSLYLQMNSLRPEDTALYYCAKDGGDHYYYGMDVWGQGTTVTVSS
VL: DIMMTQSPLSLPVTPGEPASISCRSSQSLLHSNGYKYLNWYLQKPGQSPLLLIYLGSNRASGVPDRFSGSGSGTDFTLKISRVEAEDVGVYYCMQALQTPLTFGGGTKVEIK
notes: also called 4A063-hIgG1
In the case of B4, the “EC50 (read off the curve)” value in assay [2] is about 0.004 µg/mL. Further, the results for the EC50 in assay [3] and in assay [5] were 0.00349 µg/mL and 0.00425 µg/mL, respectively. The “IC50 (read off the curve)” value in assay [4] is about 0.5 µg/mL. The molecule also displayed an IC50 in assay [6] of 0.559 µg/mL.

B5: JHH4A042-H3 (antibody, V domains shown)
VH: QVQLQQSGPGLVKPSQTLSLTCAISGDSVSSNSAAWNWIRQSPSRGLEWLGRTYFRSKWYNDYAVSVKSRITINPDTSKNQFSLQLNSMTPEDTAVYYCARERALYDILAGSFDYWGQGTLVTVSS
VL: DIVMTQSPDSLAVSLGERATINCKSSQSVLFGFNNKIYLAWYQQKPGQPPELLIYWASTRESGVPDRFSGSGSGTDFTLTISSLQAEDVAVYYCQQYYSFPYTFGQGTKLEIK
In the case of B5, in assay [2], the “EC50 (read off the curve)” value is about 1 µg/mL. Also, the EC50 came to 0.00463 µg/mL in assay [3] and 0.0792 µg/mL in assay [5]. In addition, the “IC50 (read off the curve)” value in assay [4] was about 0.8 µg/mL. Further, the IC50 in assay [6] worked out at 0.8 µg/mL.

B6: JHH4A042-H7 (antibody, V domains shown)
VH: QVQLQQSGPGLVKPSQTLSLTCAISGDSVSSNSAVWNWIRQSPSRGLEWLGRTYYRSKWYNDYAVSVKSRITINPDTSKNQFSLQLNSMTPEDTAVYYCARERALYDILAGSFDYWGQGTLVTVSS
VL: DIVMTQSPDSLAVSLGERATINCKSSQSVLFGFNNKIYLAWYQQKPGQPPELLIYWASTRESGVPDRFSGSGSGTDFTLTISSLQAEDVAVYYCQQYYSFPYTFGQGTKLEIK
In the case of B6, the EC50 in assay [3] was determined as 0.00602 µg/mL; in assay [5], 0.605 µg/mL. In assay [4], the “IC50 (read off the curve)” value is about 1 µg/mL. The molecule also displayed an IC50 in assay [6] of 0.973 µg/mL.

B7: JHH4B037a (antibody, V domains shown)
VH: EVQLVESGGGLVQPGRSLRLSCEASGFSFDDYAMHWVRQAPGKGLEWVSGISWNSVTIGYADSVKGRFTISRDNAKNSLYLEMNSLRTEDTALYYCAKELPTYRYYALDGWGQGTAVTVSS
VL: not shown
Consider B7, for which the “EC50 (read off the curve)” value in assay [2] is about 0.005 µg/mL. Moreover, the concentration for a half-maximal effect (EC50) was 0.00388 µg/mL in assay [3] and 0.00532 µg/mL in assay [5]. Further, in assay [4], the “IC50 (read off the curve)” value was about 0.8 µg/mL. Besides, the IC50 in assay [6] turned out to be 0.79 µg/mL.

B8: JHH1B2-8C (antibody, V domains shown)
VH: QVQLQQSGPGLVKPSQTLSLTCAISGDSVSSNSAAWNWIRQSPSRGLEWLGRTYYRSKWYNDYAVSVKSRITINPDTSKNQFSLQLNSVTPEDTAVYYCAREGVLRYFDWLSGAFDIWGQGTMVTVSS
VL: not shown
B8: the EC50 in assay [3] came to 0.00549 µg/mL. The “IC50 (read off the curve)” value in assay [4] is about 1 µg/mL. The same molecule registered an IC50 in assay [6] of 1.18 µg/mL.

B9: JHH4A057 (antibody, V domains shown)
VH: QVQLVQSGSELKKPGASVKVSCKASGYTLTSHALNWVRQAPGQGLEWMGWINTNTGNPTYVQGFTGRFVFSLDTSVSTAYLQISSLKAEDTAVYYCARGYSSPPRMDVWGQGTTVTVSS
VL: EIVLTQSPGTLFLSPGERATLSCRASQSVSRNYLVWYQQKPGQAPRLLIYGASTRATGIPDRFSGSGSGTDFTLTIRRLEPEDFALYYCQQYGSSPFTFGQGTKLEIN
B9: in assay [2], the “EC50 (read off the curve)” value was about 0.009 µg/mL. Moreover, the figures for the EC50 in assay [3] and in assay [5] were 0.00412 µg/mL and 0.00887 µg/mL, respectively. In assay [4], the “IC50 (read off the curve)” value is about 0.9 µg/mL. For the same molecule, in assay [6], the IC50 came to 0.899 µg/mL.

B10: JHH4B030a (antibody, V domains shown)
VH: QVQLQQSGPGLVKPSQTLSLTCAISGDSVSSNSAAWNWIRQSPSRGLEWLGRTYYRSKWYNDYAVSVKSRITINPDTSKNQFSLQLNSVTPEDTAVYYCARERGTYYDILTGDFDYWGQGTLVTVSS
VL: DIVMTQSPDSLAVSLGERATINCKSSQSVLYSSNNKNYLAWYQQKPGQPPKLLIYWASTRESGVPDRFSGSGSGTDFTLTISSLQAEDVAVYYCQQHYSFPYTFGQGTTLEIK
Turning to B10, the values for the EC50 in assay [3] and in assay [5] were 0.0043 µg/mL and 0.857 µg/mL, respectively. Further, in assay [4], the “IC50 (read off the curve)” value was about 0.8 µg/mL. The molecule also had an IC50 in assay [6] of 0.777 µg/mL.
